# Measurements published in the nanobody polyreactivity screen of Harvey et al. (2022).
# Assay: yeast display, Sf9 membrane polyspecificity reagent, FACS + sequencing; frameworks hold sequencing errors
# How it was run: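 Genes from sorted yeast were amplified by colony PCR, read by MiSeq 2 × 250 sequencing and filtered on CDR length. These cells carried a synthetic nanobody library in Saccharomyces cerevisiae BJ5465 and were sorted by FACS into low and high (top ~1%) gates on anti-HA and streptavidin fluorescence. Polyreactivity is labelled according to the gate of origin.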
row,Sequence,polyreactivity (PSR sort gate)
1,QVQLVESGGGLVQAGGSLRLSCAASGRIFKRNVMGWYRQAPGKERELVAAIRYSGGNTYYADSVKGRFTISRDNAKNTVYLQMNSLKPEDTAVYYCAAQQWSYTQSRLYDMGYWGQGTQVTVSS,high polyreactivity
2,QVQLVESGGGLVQAGGSLRLSCAASGRIFKRYTMGWYRQAPGKERELVAGITFSGGSTYYADSVKGRFTISRDNAKNTVYLQMHSLKPEDTAVYDCNARVPPQGWGPWKAFDYWGQGTQVTVSS,low polyreactivity
3,QVQLVESGGGLVQAGGSLRLSCAASGRIFKSYTMGWYRQAPGKERALVAGITWSGGSTYYADSVKGRFTISRDNAKNTVYLQMNSLKPDDTAVYYCATKTFYNYGFWGQGTQVTVSS,high polyreactivity
4,QVQLVESGGGLVQAGGSLRLSCAASGRIFKSYVMGWYRQATGKERELVAAITRTGGSTYYADSVKGRFTISRDNAKNTVYLQMNSLKPVDTAVYYCNARYSWPRATWYDYWGQGTQVTVSS,high polyreactivity
5,QVQLVESGGGLVQAGGSLRLSCAASGRIFKTYAMGWYRQAPGKERELDAAITASGGRTYYADSVKGRFTISRDNAKNTVYLQMNSLKPEDTAVYYCAADSGNEYDYWGQGTQVTVSS,high polyreactivity
6,QVQLVESGGGLVQAGGSLRLSCAASGRIFKTYAMGWYRQAPGKERELVAAITASGGRTYYADSVKGRFTISRDNAKNTVYLQMNSLTPEDSAVYYCAAPLLRDLRSPYSYNYWGQGTQVTVSS,low polyreactivity
7,QVQLVESGGGLVQAGGSLRLSCAASGRIFKVYAMGWSRQAPGKERELVAAITSGGSTNYADSVKGRFTISRDNAKTTVYLQMNSRKPEDTAVYYCAVVSGRWSAVQYDYWGQGTQVTVSS,high polyreactivity
8,QVQLVESGGGLVQAGGSLRLSCAASGRIFKVYAMGWYRQAHGKEREMVAAITSRGGSTYYADSVKGRFTISRDNSKNTVYLQMNSLKPEDTAVYYCAAARGLPSNKYYYWGQGTQVTVSS,high polyreactivity
9,QVQLVESGGGLVQAGGSLRLSCAASGRIFKVYAMGWYRQAPGKERELVATISRGGSTYYADSVKGRFTISRDNAKNTVYLQMNSLKPEDTAVYYCATQRERYYWFGAWSYDYWGQGTQVTVSS,low polyreactivity
10,QVQLVESGGGLVQAGGSLRLSCAASGRIFKWYAMGWYRQAPGKERELVAAISRSGGTTYYADSVKGRFTISSDNAKNTDYLQMNSLKPEDTAVYYCATRNIYFSTVDYWGQGTQVTVSS,high polyreactivity
11,QVQLVESGGGLVQAGGSLRLSCAASGRIFKYNAMGWYRQAPGKERELVAAISGGGSTNYADSVKGRFTISRDNAKNTVYLQMNSLKPEDTAVYYCAKGYRRVYGPFYYWGQGTQVTVSS,low polyreactivity
12,QVQLVESGGGLVQAGGSLRLSCAASGRIFKYYAMGWYRQAPGKERELVAAITRNGGITYYADSVKGRFTISRDNAKNTVYLQMNSLKPEDTAVYYCAAGQRGRYSISSDEYNYWGQGTQVTVSS,high polyreactivity
13,QVQLVESGGGLVQAGGSLRLSCAASGRIFKYYAMGWYRQAPGKERELVARISRSSGNTYYADSVKGRFTISRDNAKNTVYLQMNSLKPEDTAVYYCATVPHYNGFNYWGQGTQVTVSS,high polyreactivity
14,QVQLVESGGGLVQAGGSLRLSCAASGRIFKYYAMGWYRQAPGKERELVARISSGGGRTYYADSVKGRFTISRDNAKNTVYLQMNSLKPEDTAVYYCAADPPASYHTWYGYWGQGTQVTVSS,high polyreactivity
15,QVQLVESGGGLVQAGGSLRLSCAASGRIFKYYAMGWYRQAPGKERELVSTISRGGGSTFYADSVKGRFTISRDNAKNTVYLQMNSLKPEDTAVYYCAVDVTFKRWYSTASSTHDYWGQGTQVTVSS,high polyreactivity
16,QVQLVESGGGLVQAGGSLRLSCAASGRIFKYYVMGWYRQAPGKERELVATISSGSGTNYADSVKGRFTISRDNAKNTVYLQMNSLKPEDTAVYYCAARWTPRVRGYNYWGQGTLVTVSS,high polyreactivity
17,QVQLVESGGGLVQAGGSLRLSCAASGRIFLFYDMGWYRQAPGKERELVATISFRGGSTYYADSVKGRFTISRDNAKNTVYLQMNSLKPEDTAVYYCAKQNKRGYSTSAYYYWGQGTQVTVSS,low polyreactivity
18,QVQLVESGGGLVQAGGSLRLSCAASGRIFLGHDMGWYRQAPGKERELVATISSSGDSTYYADSVKGRFTISRDNAKNTVYLQMNSLKPEDTAVYYCAVKSTDVPVRGSPYDYWGQGTQVTVSS,low polyreactivity
19,QVQLVESGGGLVQAGGSLRLSCAASGRIFLGYAMGWYRQAPGKEREFVAAITSSGGSTYYADSVKGRFTISRDNAKNTVYLLMNSLKPEDTAVYYCAARVTKLRTSSLRGYWGQGTQVTVSS,high polyreactivity
20,QVQLVESGGGLVQAGGSLRLSCAASGRIFLRYTMGWYRQAPGKERELVAAISARTTGTYYADSVKGRFTISRDNAKNTVYLQMNSLKPEDTAVYYCAAKSKLSRDLFSWGQGTQVTVSS,low polyreactivity
21,QVQLVESGGGLVQAGGSLRLSCAASGRIFLSYAMGWYRQAPGKEREFVAAITSSGGSTSYADSVKGRFTISRDNAKNTVYLQMNSLKPEDTAVYYCNARAYIFGQLKYDYWGQGTQVTVAS,low polyreactivity

row,Sequence,polyreactivity (PSR sort gate)
1,QVQLVESGGGLVQAGGSLRLSCAASGRIFLTNAMGSYRQAPGKERELVAAIRFSGGRTYYADSVKGRFTISRDNAKNTVYLQMNSLKPEDNAVYYCAADPPRTRYRNARFDYWGQGTQVTVSS,high polyreactivity
2,QVQLVESGGGLVQAGGSLRLSCAASGRIFLTNTMGWYRQAPGKERELVAGISRGGRTYDADSVKGRFTISRDNAKNTVYLLKNSLKPEDTAVYYCAGRHRTPIYPYKRDYWGQGTQVSVSS,high polyreactivity
3,QVQLVESGGGLVQAGGSLRLSCAASGRIFLVNAMGWYRQAPGKEREFVAAITDNPGSTYYADSVKGRFTISRDNAKNTVYLQMNSLKPEDTAVYYCAKQRGNKRIGYDSWGQGTQVTVSS,low polyreactivity
4,QVQLVESGGGLVQAGGSLRLSCAASGRIFLYYAMGWYRQAPGKERELVAASTYTDGSTYYADSVKGRFTISRDNAKNTVYLQMNSLKPEDTAVYYCAAEFYYYDYWGQGTQVTVSS,low polyreactivity
5,QVQLVESGGGLVQAGGSLRLSCAASGRIFLYYTMGWYRQAPGKERELDAAITRSGGSTYYADSVKGRFTISRDNAKNTDYLQMNSLKPEDTAVYYCNRAYVRYVPMNYWGQGTQVTVSS,high polyreactivity
6,QVQLVESGGGLVQAGGSLRLSCAASGRIFNAYAIGWYRQAPGKERELVAAITVSGTRTYYADSVKGRFTISRDNAKNTVYLQMNSLKPEDTAVYYCAADIYHQPRYKYYYWGQGTQVTVSS,high polyreactivity
7,QVQLVESGGGLVQAGGSLRLSCAASGRIFNDYAMGWYRQAPGKERELVATYADSVKGRFTISRDNAKNTVYLQMNSLKPEDTAVYYCAADFPSFPDFRPEYDYWGQGTQVTVSS,low polyreactivity
8,QVQLVESGGGLVQAGGSLRLSCAASGRIFNENAMGWYRQAPGKERELVAAISRRGGTTYYADSVKGRFTISRDNAKNTVYLQMNSLIPEDTAVYYCNARYSKKGESQREYDYWGQGTQVTVSS,low polyreactivity
9,QVQLVESGGGLVQAGGSLRLSCAASGRIFNGYTMGWYRQAPGKEREFVATISRSGGSTYYADSVKGRFTISRDNAKNTVYLQMNSLKPEDTAVYYCAKTYPAKWEYDYWGQGTQVTVSS,low polyreactivity
10,QVQLVESGGGLVQAGGSLRLSCAASGRIFNHNTMGWYRQAPGKERELVAAISRSGASTYYADSVKGRFTISRDNAKNTVYLQMNSLKPEDTAVYYCNAATYADGITIYDYWGQGTQVTVSS,low polyreactivity
11,QVQLVESGGGLVQAGGSLRLSCAASGRIFNIYAMGWYRQAPGKERELVAAISVSGTRTYYADSVKGRFTISRDNAKNTVYLQMNSLKPEDTAVYYCAADSYGGVWTEHMYYWGQGTQVTVSS,low polyreactivity
12,QVQLVESGGGLVQAGGSLRLSCAASGRIFNLYDMGWYRQAPGKERELVAAIRIGDRTYYADSVKGRFTISRDNEKNTVYLQMNSLKQEDTAVYYCNREYLSNRDKRFFYWGQGTQVTVSS,low polyreactivity
13,QVQLVESGGGLVQAGGSLRLSCAASGRIFNPNVMGWYRQAPGKERELVAAISWSGDTTYYADSVKWRFTISRDNAKNTVYLQMNSLKPEDTEVYYCATESDGYAYENYEYWGQGTQVTVSS,high polyreactivity
14,QVQLVESGGGLVQAGGSLRLSCAASGRIFNRNAMGWYRQAPGKERELVAAISSDTSTNYADSVKGRFTISRDNAKNTVYLQMNSLKPEDTAVYYCAADVRRYDGYDYWGQGTQVTVSS,low polyreactivity
15,QVQLVESGGGLVQAGGSLRLSCAASGRIFNRYAMGWYRQAPGKERELVAAISRGGGTNYADSVKGRFTISRDNAKNTVYLQMNSLKPEDTAVYYCAAARGHNVETSTTYDRGDYWGQGTQVTVSS,low polyreactivity
16,QVQLVESGGGLVQAGGSLRLSCAASGRIFNRYAMGWYRQAPGKERELVAAITSGGDTNYADSVKGRFTISRDNAKNTVYLQMNSLKPEDTAVYYCNARSRGRASGYDYWGQGTQVTVSS,high polyreactivity
17,QVQLVESGGGLVQAGGSLRLSCAASGRIFNRYAMGWYRQAPGKERELVAAITSGGDTNYADSVKGRFTISRDNAKNTVYLQMNSLKPEETAVYYCAAYLYPWYSRYYYWGQGTQVTVSS,high polyreactivity
18,QVQLVESGGGLVQAGGSLRLSCAASGRIFNRYAMGWYRQAPGKERELVAAITTSADSTYADSVKGRFTISRDNAKNTVYLQMNSLKPEDTAVYYCNVASRQGSTYDYWGQGTQVTVSS,high polyreactivity
19,QVQLVESGGGLVQAGGSLRLSCAASGRIFNTYAMGWFRQAPGKERELVAAITRSAGRTYYADSVKGRFTISRDTAKNTVYLQMNSLKPEDTAVYYCAAQYNYGQRSGPYGYWGQGTQVTVSS,low polyreactivity
20,QVQLVESGGGLVQAGGSLRLSCAASGRIFNVYAMGWYRQAPGKERELVAAIRRRGDRTYYADSVKGRFTISRDNAKNTVYLQMNSLKPEDTAVYYCAKSQSAKGGYDYWGQGTQVTVSS,high polyreactivity
